Biological target: octadecenoyl-ACP

B1: Synechococcus elongatus PCC7942 YP-400611 (Synpcc7942-1594) protein with C-terminal His-tag (protein)
chain: MFGLIGHLTSLEQARDVSRRMGYDEYADQGLEFWSSAPPQIVDEITVTSATGKVIHGRYIESCFLPEMLAARRFKTATRKVLNAMSHAQKHGIDISALGGFTSIIFENFDLASLRQVRDTTLEFERFTTGNTHTAYVICRQVEAAAKTLGIDITQATVAVVGATGDIGSAVCRWLDLKLGVGDLILTARNQERLDNLQAELGRGKILPLEAALPEADFIVWVASMPQGVVIDPATLKQPCVLIDGGYPKNLGSKVQGEGIYVLNGGVVEHCFDIDWQIMSAAEMARPERQMFACFAEAMLLEFEGWHTNFSWGRNQITIEKMEAIGEASVRHGFQPLALAI
  Km for the reduction of octadecenoyl-ACP in the presence of 2 mM NADPH: 7.8 ± 2 µM
